Our source for the Kd values is publication PMC9340540 (2022).

The target of this test is T1, CHN-1 (C. elegans).
T1 chain: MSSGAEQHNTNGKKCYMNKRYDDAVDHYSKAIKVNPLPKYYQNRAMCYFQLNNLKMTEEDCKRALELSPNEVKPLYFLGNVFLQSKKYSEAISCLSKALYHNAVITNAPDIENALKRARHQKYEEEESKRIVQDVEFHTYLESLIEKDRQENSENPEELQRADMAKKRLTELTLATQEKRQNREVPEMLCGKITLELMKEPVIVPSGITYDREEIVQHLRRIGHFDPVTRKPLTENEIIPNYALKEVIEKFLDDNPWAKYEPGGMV
Briefly: ELISA. On the technique in general: In an ELISA, binding on a coated surface is turned into a signal by an enzyme label.

B1: UFD-2 (enzyme)
chain: MIEDEKAGLQPMDISDASVFFFQADVESKDFLTSLFDCEGKSDDRMLRYADAIIDVQNLNFDVSPQCLQSNIAEIITKFVLLSQDGSRRGLSRSFNFIDPDIIAGCREEDAIEFLLINFVRCHHELGKSGTSNCYKKTLESTRKAVFSVFVMIQRGYLESQLRSQHASLVFTKRLLEDTVSNVFLRTLVEYLASTDECDEDAITETFNPIFGILRSGIICQRFEDNKDEIVRQILRVMNLLLSIRLPSNGPRPLSNLLVNREDFLPTPSEKIQGREFGLMSFLGPFFSYGLESSARRPNHRVFVDCEEDARKYDGSVNTEQKLYFQRMDPIRTMLHQLMLPLASDQGSRNKTLRWIATIISTNDIRTRSHYDPSDVLCDHYMTNFLSVMYMFSEKIDLSKIIVDYPFLPSSLINISKETRLKMDESGAVAFASQFADRPDEYHFSTVCFFLTIAAQRLVIPPLMNQISEYSRHLKELKHKINALKEKLNTVSGFERAEVEKKLNYETEHWKLMSRHLLCVKTQAQDPALMASSMDFVDKQMKFILNLLCDNLDLLGDDSQLPTEVSQMFCALPEYFLEDALDFYIFAISNGMKLLMERNADWISRLTVLFTQYHYIKSPFLVSKLVRVLSSIQPPLWFNVVRLRMAQENLLMCMIKFYSDFEDNGDFYEKFNVRGNIQYMLEKMEEDMFYKGKFMDMARECGAEFIRFVNMVINDATWCIDESLSGLKSIHDVEKKMANKVEWDNTDQEIRNQDLGVYEEAKRKVKGWLGTAKSNLKLLLSITVNSPEPFRTPVLGERLAAMLNHNLSQLIGSKASELKVKDPRSYGWEPREFVSLLISIYLKLNMPAFVKYIAYDERTYSPEFFHNAIECMRKNSIVGFSQLESFEHLAEDVKKEYEAKAELEEEYDDVPEEFKDPIMDAIMVDPVKLPSGHVMDRAVIERHLLSTPNNPFNRAPLSHNELSPDSELKAKIQEWICQKRNSKK
B1 showed an equilibrium dissociation constant (Kd) of 37.8 nM.

B2: HSP-1::6xHis (natural protein)
chain: not shown
B2 came in with a Kd of 12.2 nM.

What is called Kd is the free concentration of one partner at which half of the binding sites on the other are occupied at equilibrium, for simple one-to-one binding.
